In article PMC12102759:

B1: ATXN2 peptide 911-926 (Ataxin-2), 16-mer library wild type / PABPC1 PABC (PABPC1 PABC domain, residues 544-623) (parent)
chain 1: KSTLNPNAKEFNPRSF
chain 2: PLTASMLASAPPQEQKQMLGERLFPLIQAMHPTLAGKITGMLLEIDNSELLHMLESPESLRSKVDEAVAVLQAHQAKEAA

Variants of: B1
Test: proteomic peptide phage display deep mutational scan (ProP-PD DMS): M13 P8 16-mer library selected against immobilised GST-tagged bait for four days (rounds), NGS of the eluted pools per day and pseudo-replica
Conditions: with PABPC1 PABC (PABPC1 PABC domain, residues 544-623); bait immobilised on MaxiSorp plates (10 µg), library pre-cleared on GST, 2 h binding at 4 °C, five washes; one round per day, days 1-4; value from days 2 and 3; scale: average fractional NGS count over selection days 2 and 3

Row | screen value | Variant
1 | 5.73e-05 | chain 1 KSTLNPNAKEFNPRWF [chain 1 S15W]
2 | 0.000151 | chain 1 KSTLNPNAKEFNPRYF [chain 1 S15Y]
3 | 0.000221 | chain 1 KSTLNPNAKEFNPRIF [chain 1 S15I]
4 | 0.000153 | chain 1 KSTLNPNAKEFNPRAF [chain 1 S15A]
5 | 0 | chain 1 KSTLNPNAKEFNPRQF [chain 1 S15Q]
6 | 0.000241 | chain 1 KSTLNPNAKEFNPRSN [chain 1 F16N]
7 | 0.000103 | chain 1 KSTLNPNAKEFNPRSD [chain 1 F16D]
8 | 0.000158 | chain 1 KSTLNPNAKEFNPRSH [chain 1 F16H]
9 | 0.000108 | chain 1 KSTLNPNAKEFNPRST [chain 1 F16T]
10 | 0.000892 | chain 1 KSTLNPNAKEFNPRSV [chain 1 F16V]
11 | 0.00151 | chain 1 KSTLNPNAKEFNPRSL [chain 1 F16L]
12 | 0.00041 | chain 1 KSTLNPNAKEFNPRSA [chain 1 F16A]
13 | 0.000134 | chain 1 KSTLNPNAKEFNPRSS [chain 1 F16S]
14 | 8.6e-05 | chain 1 KSTLNPNAKEFNPRSW [chain 1 F16W]
15 | 0.000285 | chain 1 KSTLNPNAKEFNPRSI [chain 1 F16I]
16 | 0.000515 | chain 1 KSTLNPNAKEFNPRSY [chain 1 F16Y]
17 | 0.000149 | chain 1 KSTLNPNAKEFNPRSM [chain 1 F16M]
18 | 0.000331 | chain 1 KSTLNPNAKEFTPRSF [chain 1 N12T]
19 | 0.000518 | chain 1 KSTLNPNAKEFHPRSF [chain 1 N12H]
20 | 0.000112 | chain 1 KSTLNPNAKEFSPRSF [chain 1 N12S]
21 | 0 | chain 1 KSTLNPNAKEFPPRSF [chain 1 N12P]
22 | 0.00106 | chain 1 KSTLNPNAKEFMPRSF [chain 1 N12M]
23 | 0.000365 | chain 1 KSTLNPNAKEFIPRSF [chain 1 N12I]
24 | 0.00202 | chain 1 KSTLNPNAKEFWPRSF [chain 1 N12W]

Row | screen value | Variant
25 | 0.000277 | chain 1 KSTLNPNAKEFGPRSF [chain 1 N12G]
26 | 0.000678 | chain 1 KSTLNPNAKEFFPRSF [chain 1 N12F]
27 | 0.00161 | chain 1 KSTLNPNAKEFAPRSF [chain 1 N12A]
28 | 0.00012 | chain 1 KSTLNPNAKEFDPRSF [chain 1 N12D]
29 | 0 | chain 1 KSTLNPNAKEFLPRSF [chain 1 N12L]
30 | 0.000122 | chain 1 KSTLNPNAKEFKPRSF [chain 1 N12K]
31 | 0.00267 | chain 1 KSTLNPNAKEFVPRSF [chain 1 N12V]
32 | 0.000774 | chain 1 KSTLNPNAKEFEPRSF [chain 1 N12E]
33 | 0.000365 | chain 1 KSTLNPNAKEFQPRSF [chain 1 N12Q]
34 | 0.00156 | chain 1 KSTLNPNAKEFNPQSF [chain 1 R14Q]
35 | 0.00309 | chain 1 KSTLNPNAKEFNPTSF [chain 1 R14T]
36 | 0.0017 | chain 1 KSTLNPNAKEFNPGSF [chain 1 R14G]
37 | 0.00013 | chain 1 KSTLNPNAKEFNPPSF [chain 1 R14P]
38 | 9.46e-05 | chain 1 KSTLNPNAKEFNPMSF [chain 1 R14M]
39 | 0.00286 | chain 1 KSTLNPNAKEFNPWSF [chain 1 R14W]
40 | 0.00103 | chain 1 KSTLNPNAKEFNPSSF [chain 1 R14S]
41 | 0.000187 | chain 1 KSTLNPNAKEFNPESF [chain 1 R14E]
42 | 0.000471 | chain 1 KSTLNPNAKEFNPHSF [chain 1 R14H]
43 | 0.000722 | chain 1 KSTLNPNAKEFNPYSF [chain 1 R14Y]
44 | 0.000117 | chain 1 KSTLNPNAKEFNPNSF [chain 1 R14N]
45 | 0.00158 | chain 1 KSTLNPNAKEFNPASF [chain 1 R14A]
46 | 0.000569 | chain 1 KSTLNPNAKEFNPVSF [chain 1 R14V]
47 | 0.000523 | chain 1 KSTLNPNAKEFNPFSF [chain 1 R14F]
48 | 1.57e-05 | chain 1 KSTLNPTAKEFNPRSF [chain 1 N7T]

Row | screen value | Variant
49 | 5.67e-05 | chain 1 KSTLNPYAKEFNPRSF [chain 1 N7Y]
50 | 0.000289 | chain 1 KSTLNPMAKEFNPRSF [chain 1 N7M]
51 | 0.000455 | chain 1 KSTLNPSAKEFNPRSF [chain 1 N7S]
52 | 0.000441 | chain 1 KSTLNPLAKEFNPRSF [chain 1 N7L]
53 | 0.00577 | chain 1 KSTLNPIAKEFNPRSF [chain 1 N7I]
54 | 5.23e-05 | chain 1 KSTLNPRAKEFNPRSF [chain 1 N7R]
55 | 0.000105 | chain 1 KSTLNPAAKEFNPRSF [chain 1 N7A]
56 | 0 | chain 1 KSTLNPWAKEFNPRSF [chain 1 N7W]
57 | 0.000328 | chain 1 KSTLNPHAKEFNPRSF [chain 1 N7H]
58 | 0.000181 | chain 1 KSTLNPVAKEFNPRSF [chain 1 N7V]
59 | 0.000764 | chain 1 KSTLNPDAKEFNPRSF [chain 1 N7D]
60 | 0.000449 | chain 1 KSTLNPQAKEFNPRSF [chain 1 N7Q]
61 | 0 | chain 1 KSTLNPGAKEFNPRSF [chain 1 N7G]
62 | 0.00073 | chain 1 KSTLNPFAKEFNPRSF [chain 1 N7F]
63 | 0.000331 | chain 1 KSTLNPEAKEFNPRSF [chain 1 N7E]
64 | 0 | chain 1 KSSLNPNAKEFNPRSF [chain 1 T3S]
65 | 0 | chain 1 KSQLNPNAKEFNPRSF [chain 1 T3Q]
66 | 0.000528 | chain 1 KSGLNPNAKEFNPRSF [chain 1 T3G]
67 | 0.000481 | chain 1 KSFLNPNAKEFNPRSF [chain 1 T3F]
68 | 0.00143 | chain 1 KSVLNPNAKEFNPRSF [chain 1 T3V]
69 | 0.000105 | chain 1 KSWLNPNAKEFNPRSF [chain 1 T3W]
70 | 0.00159 | chain 1 KSELNPNAKEFNPRSF [chain 1 T3E]
71 | 0.00112 | chain 1 KSILNPNAKEFNPRSF [chain 1 T3I]
72 | 3.57e-05 | chain 1 KSYLNPNAKEFNPRSF [chain 1 T3Y]

Row | screen value | Variant
73 | 0.000543 | chain 1 KSMLNPNAKEFNPRSF [chain 1 T3M]
74 | 0 | chain 1 KSKLNPNAKEFNPRSF [chain 1 T3K]
75 | 8.48e-05 | chain 1 KSHLNPNAKEFNPRSF [chain 1 T3H]
76 | 0.00178 | chain 1 KYTLNPNAKEFNPRSF [chain 1 S2Y]
77 | 0.000338 | chain 1 KATLNPNAKEFNPRSF [chain 1 S2A]
78 | 0.000237 | chain 1 KGTLNPNAKEFNPRSF [chain 1 S2G]
79 | 0.000554 | chain 1 KFTLNPNAKEFNPRSF [chain 1 S2F]
80 | 0.000105 | chain 1 KETLNPNAKEFNPRSF [chain 1 S2E]
81 | 0.000114 | chain 1 KDTLNPNAKEFNPRSF [chain 1 S2D]
82 | 0.00026 | chain 1 KHTLNPNAKEFNPRSF [chain 1 S2H]
83 | 0.00187 | chain 1 KMTLNPNAKEFNPRSF [chain 1 S2M]
84 | 0 | chain 1 KNTLNPNAKEFNPRSF [chain 1 S2N]
85 | 0.00018 | chain 1 KTTLNPNAKEFNPRSF [chain 1 S2T]
86 | 0.000881 | chain 1 KVTLNPNAKEFNPRSF [chain 1 S2V]
87 | 0.000118 | chain 1 KITLNPNAKEFNPRSF [chain 1 S2I]
88 | 5.2e-05 | chain 1 KLTLNPNAKEFNPRSF [chain 1 S2L]
89 | 0.00164 | chain 1 KPTLNPNAKEFNPRSF [chain 1 S2P]
90 | 0.000235 | chain 1 KSTLNPNAKEYNPRSF [chain 1 F11Y]
91 | 0 | chain 1 KSTLNPNAKEVNPRSF [chain 1 F11V]
92 | 0.000158 | chain 1 KSTLNPNAKEWNPRSF [chain 1 F11W]
93 | 0 | chain 1 KSTLNPNSKEFNPRSF [chain 1 A8S]
94 | 0.000222 | chain 1 KSTLNPNVKEFNPRSF [chain 1 A8V]
